Publication doi:10.1101/2024.02.29.582524
Each block holds one substance with its values, some of them ahead of it.

How the values were obtained:
[1] = biological target: Hebeloma cylindrosporum Jps1 (HcJps1) (Hebeloma cylindrosporum); assay: SEC-MALS
[2] = biological target: Sporisorium reilianum Jps1 (SrJps1) (Sporisorium reilianum); assay: mass photometry
[3] = biological target: Sporisorium reilianum Jps1 (SrJps1) (Sporisorium reilianum); assay: SEC-MALS
[4] = biological target: Ustilago maydis Jps1 lacking the unstructured C-terminus (Jps1^1-484) (Ustilago maydis); assay: SAXS
[5] = biological target: Ustilago maydis Jps1 lacking the unstructured C-terminus (Jps1^1-484) (Ustilago maydis); assay: SEC-MALS
[6] = biological target: Ustilago maydis Jps1, full length (Jps1^1-609) (Ustilago maydis); assay: mass photometry
[7] = biological target: Ustilago maydis Jps1, full length (Jps1^1-609) (Ustilago maydis); assay: SEC-MALS
[8] = biological target: Ustilago maydis Jps1^1-484 M^5 (alanine replacements of the basic cluster R162, R163, R164) (Ustilago maydis); assay: SEC-MALS

Substance: Ustilago maydis Jps1, full length (Jps1^1-609) (natural protein)
percent of particles in the dimer fraction (125 kDa) [6]: 69%
percent of particles in the monomer fraction (64 kDa) [6]: 9%
stoichiometry N [6]: 2
stoichiometry N [7]: 2

Substance: Ustilago maydis Jps1^1-484 M^5 (alanine replacements of the basic cluster R162, R163, R164) (domain or fragment)
stoichiometry N [8]: 2

Continued, values first:

stoichiometry N [1]: 2
Substance: Hebeloma cylindrosporum Jps1 (HcJps1) (natural protein)

stoichiometry N [2]: 2
stoichiometry N [3]: 2
Substance: Sporisorium reilianum Jps1 (SrJps1) (natural protein)

stoichiometry N [4]: 2
stoichiometry N [5]: 2
Substance: Ustilago maydis Jps1 lacking the unstructured C-terminus (Jps1^1-484) (domain or fragment)
